This note sets out measurements from the supplement of paper PMC9112550, “Optimization of the antimicrobial peptide Bac7 by deep mutational scanning” (BMC Biology, 2022).

This data set deals with Escherichia coli TOP10. Put plainly: shrunken log2 fold change of peptide-encoding DNA abundance (4.5 h post-induction vs induction); higher = less antimicrobial activity (less host growth inhibition). The following applies: time post-induction: 4.5 h; library: site-saturation at positions 5, 18, 19, 20.
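Also: peptides expressed intracellularly from a pBAD plasmid library in pooled LB shake-flask culture, induced with 0.3% L-arabinose, DNA abundance read by NGS, three biological replicates, DESeq2 with apeglm shrinkage.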

Take RRIRWRPPRLPRPRPRPMKSPRP: the “shrunken log2 fold change” value was found to be 0.252.
With RRIRHRPPRLPRPRPRPRVDPRP, the “shrunken log2 fold change” value stood at 0.0681.
The same measure for RRIRWRPPRLPRPRPRPMEVPRP: -0.00973; for RRIRLRPPRLPRPRPRPRSTPRP: -0.00899; for RRIRDRPPRLPRPRPRPINMPRP: 0.00272.
The same measure for RRIRSRPPRLPRPRPRPCDQPRP: -0.0341; for RRIRVRPPRLPRPRPRPDQPPRP: 0.166; for RRIRMRPPRLPRPRPRPDPTPRP: 0.0984.
The same measure for RRIRERPPRLPRPRPRPMTEPRP: -0.116; for RRIRWRPPRLPRPRPRPSQCPRP: 0.0963.
Consider RRIRPRPPRLPRPRPRPEKYPRP, for which the “shrunken log2 fold change” value is -0.562.
Take RRIRLRPPRLPRPRPRPWPRPRP: the “shrunken log2 fold change” value was 0.113.
The same measure for RRIRSRPPRLPRPRPRPCMQPRP: -0.31; for RRIRIRPPRLPRPRPRPCFWPRP: -0.22.
The same measure for RRIRRRPPRLPRPRPRPQGMPRP: 0.133; for RRIRDRPPRLPRPRPRPCMAPRP: 0.203; for RRIRKRPPRLPRPRPRPRGPPRP: 1.23.
As for RRIRLRPPRLPRPRPRPTSCPRP, the “shrunken log2 fold change” value came to 0.0575.
The same measure for RRIRTRPPRLPRPRPRPVLGPRP: 0.304.
The same measure for RRIRWRPPRLPRPRPRPKSEPRP: 0.502.
With RRIRKRPPRLPRPRPRPMWLPRP, the “shrunken log2 fold change” value amounted to 0.642.
With RRIRCRPPRLPRPRPRPYQFPRP, the “shrunken log2 fold change” value is -0.0218.
The same measure for RRIRARPPRLPRPRPRPMKCPRP: -0.0407; for RRIRNRPPRLPRPRPRPTWDPRP: -0.0897; for RRIRDRPPRLPRPRPRPGKHPRP: -0.0728.
Take RRIRVRPPRLPRPRPRPPWYPRP: the “shrunken log2 fold change” value was 0.0253.
With RRIRMRPPRLPRPRPRPWSGPRP, the “shrunken log2 fold change” value was -0.0411.
Consider RRIRVRPPRLPRPRPRPDVTPRP, for which the “shrunken log2 fold change” value is -0.0394.
The same measure for RRIRMRPPRLPRPRPRPDFTPRP: 0.463.
As to RRIRKRPPRLPRPRPRPQLFPRP, the “shrunken log2 fold change” value stood at 0.364.
As for RRIRVRPPRLPRPRPRPPGEPRP, the “shrunken log2 fold change” value was determined as 0.511.
The same measure for RRIRSRPPRLPRPRPRPACTPRP: 0.28.
On to RRIRPRPPRLPRPRPRPGDKPRP, for which the “shrunken log2 fold change” value was -0.307.
The same measure for RRIRTRPPRLPRPRPRPFLMPRP: -0.378.
The same measure for RRIRHRPPRLPRPRPRPQRTPRP: -0.145.
For RRIRVRPPRLPRPRPRPRQWPRP, the “shrunken log2 fold change” value came to 0.236.
RRIRHRPPRLPRPRPRPVTWPRP: the “shrunken log2 fold change” value is -0.268.
The same measure for RRIRLRPPRLPRPRPRPWCHPRP: -0.441.
The same measure for RRIRSRPPRLPRPRPRPYHVPRP: -1.09.
The same measure for RRIRSRPPRLPRPRPRPLAVPRP: 0.0333; for RRIRERPPRLPRPRPRPETQPRP: 0.0866.
With RRIRQRPPRLPRPRPRPRPPPRP, the “shrunken log2 fold change” value stood at 1.08.
With RRIRPRPPRLPRPRPRPFGKPRP, the “shrunken log2 fold change” value was -0.164.
The same measure for RRIRKRPPRLPRPRPRPMMNPRP: 0.154; for RRIRKRPPRLPRPRPRPACNPRP: -0.0224.
The same measure for RRIRWRPPRLPRPRPRPNSLPRP: -0.123; for RRIRPRPPRLPRPRPRPYSSPRP: -0.282.
With RRIRYRPPRLPRPRPRPTSHPRP, the “shrunken log2 fold change” value was -0.611.
As to RRIRNRPPRLPRPRPRPIIHPRP, the “shrunken log2 fold change” value is -0.712.
Take RRIRVRPPRLPRPRPRPYHDPRP: the “shrunken log2 fold change” value was -0.182.
The same measure for RRIRVRPPRLPRPRPRPNYWPRP: -0.307.
In the case of RRIRQRPPRLPRPRPRPWSPPRP, the “shrunken log2 fold change” value was -0.106.
For the sequence RRIRHRPPRLPRPRPRPIAVPRP, the “shrunken log2 fold change” value was -0.219.
The same measure for RRIRYRPPRLPRPRPRPPLDPRP: 0.443.
The same measure for RRIRMRPPRLPRPRPRPFTAPRP: 0.245; for RRIRERPPRLPRPRPRPCCKPRP: -0.267; for RRIRWRPPRLPRPRPRPISNPRP: -0.0292.
For RRIRKRPPRLPRPRPRPPGQPRP, the “shrunken log2 fold change” value was 1.25.
The same measure for RRIRMRPPRLPRPRPRPPMCPRP: 0.293.
The same measure for RRIRYRPPRLPRPRPRPTQAPRP: -0.00154; for RRIRGRPPRLPRPRPRPILRPRP: 0.161.
The same measure for RRIRVRPPRLPRPRPRPCNQPRP: 0.0169; for RRIRHRPPRLPRPRPRPLGHPRP: -0.499; for RRIRNRPPRLPRPRPRPAWLPRP: 0.276.
Consider RRIRQRPPRLPRPRPRPWIMPRP, for which the “shrunken log2 fold change” value was -0.141.
The same measure for RRIRNRPPRLPRPRPRPAQKPRP: 0.918.
The same measure for RRIRVRPPRLPRPRPRPILHPRP: 1.12; for RRIRHRPPRLPRPRPRPRPSPRP: 0.466.
As to RRIRDRPPRLPRPRPRPLRPPRP, the “shrunken log2 fold change” value amounted to 1.15.
Turning to RRIRLRPPRLPRPRPRPPKVPRP, the “shrunken log2 fold change” value was 0.287.
For RRIRDRPPRLPRPRPRPMNFPRP, the “shrunken log2 fold change” value was -0.285.
The same measure for RRIRPRPPRLPRPRPRPTKIPRP: -0.0764; for RRIRMRPPRLPRPRPRPVLKPRP: 0.072.
The same measure for RRIRRRPPRLPRPRPRPNHKPRP: -0.226; for RRIRIRPPRLPRPRPRPIKSPRP: -0.462; for RRIRARPPRLPRPRPRPYVLPRP: -0.347.
The same measure for RRIRRRPPRLPRPRPRPKNGPRP: 0.259; for RRIRSRPPRLPRPRPRPIEKPRP: -0.0173; for RRIRWRPPRLPRPRPRPYMCPRP: 0.00232.
Turning to RRIRHRPPRLPRPRPRPPPGPRP, the “shrunken log2 fold change” value stood at 0.769.
In the case of RRIRGRPPRLPRPRPRPRHYPRP, the “shrunken log2 fold change” value stood at 0.173.
The same measure for RRIRHRPPRLPRPRPRPAIMPRP: -0.233; for RRIRHRPPRLPRPRPRPHSQPRP: -0.224.
The same measure for RRIRIRPPRLPRPRPRPSSDPRP: 0.0499; for RRIRWRPPRLPRPRPRPEDHPRP: 0.304.
The same measure for RRIRRRPPRLPRPRPRPVEIPRP: 0.048; for RRIRARPPRLPRPRPRPHINPRP: -0.325.
With RRIRRRPPRLPRPRPRPLHWPRP, the “shrunken log2 fold change” value was 0.235.
The same measure for RRIRFRPPRLPRPRPRPVCPPRP: 0.311; for RRIRLRPPRLPRPRPRPVSYPRP: -0.0976; for RRIRKRPPRLPRPRPRPKACPRP: -0.00804.
The same measure for RRIRKRPPRLPRPRPRPSFMPRP: 1.94; for RRIRARPPRLPRPRPRPRVNPRP: 0.631.
For the sequence RRIRGRPPRLPRPRPRPATCPRP, the “shrunken log2 fold change” value was 0.512.
The same measure for RRIRFRPPRLPRPRPRPRVMPRP: 0.138.
The same measure for RRIRHRPPRLPRPRPRPPCWPRP: 0.142; for RRIRSRPPRLPRPRPRPKNIPRP: -0.314.
The same measure for RRIRWRPPRLPRPRPRPMQAPRP: 1.83; for RRIRLRPPRLPRPRPRPPSIPRP: -0.0597.
For the sequence RRIRPRPPRLPRPRPRPNEFPRP, the “shrunken log2 fold change” value is -0.0949.
The same measure for RRIRMRPPRLPRPRPRPWMMPRP: 0.024.
For RRIRVRPPRLPRPRPRPFRAPRP, the “shrunken log2 fold change” value was -0.0855.
The same measure for RRIRYRPPRLPRPRPRPIYNPRP: 0.36; for RRIRTRPPRLPRPRPRPPHHPRP: -0.149; for RRIRYRPPRLPRPRPRPPYGPRP: -0.54.
As to RRIRNRPPRLPRPRPRPKDTPRP, the “shrunken log2 fold change” value was -0.018.
On to RRIRKRPPRLPRPRPRPVLQPRP, for which the “shrunken log2 fold change” value was -0.0875.
The same measure for RRIRDRPPRLPRPRPRPQGIPRP: -0.0548; for RRIRDRPPRLPRPRPRPEGSPRP: 1.06; for RRIRERPPRLPRPRPRPNLKPRP: -0.56.
On to RRIRWRPPRLPRPRPRPQKAPRP, for which the “shrunken log2 fold change” value was determined as 0.123.
With RRIRRRPPRLPRPRPRPRMHPRP, the “shrunken log2 fold change” value came out at 0.516.
For the sequence RRIRKRPPRLPRPRPRPDRQPRP, the “shrunken log2 fold change” value is 0.204.
The same measure for RRIRGRPPRLPRPRPRPYTFPRP: 0.151; for RRIRVRPPRLPRPRPRPDKAPRP: -0.0129.
Consider RRIRMRPPRLPRPRPRPANYPRP, for which the “shrunken log2 fold change” value was -0.394.
The same measure for RRIRTRPPRLPRPRPRPAPVPRP: 0.0626.
With RRIRFRPPRLPRPRPRPIAPPRP, the “shrunken log2 fold change” value was 0.0659.
The same measure for RRIRCRPPRLPRPRPRPNHMPRP: -0.255.
The same measure for RRIRPRPPRLPRPRPRPCHRPRP: -0.181; for RRIRLRPPRLPRPRPRPSQGPRP: 0.535; for RRIRSRPPRLPRPRPRPAEYPRP: -0.0544.
The same measure for RRIRVRPPRLPRPRPRPSQPPRP: -0.112; for RRIRQRPPRLPRPRPRPIEPPRP: -0.0381; for RRIRRRPPRLPRPRPRPRVCPRP: 0.89.
